Legend:
Type in all cases: biochemical
[1] = Quantification of produced N-acylamino acid (UV 210 nm) using purified acylamino acid synthetase; conditions: 5 mM sodium fatty acid, 200 μg/mL enzyme, 25° C., 24 hours
Procedure: 0.1 mL of a reaction solution containing 50 mM Tris-HCl, 5 mM amino acid, 5 mM sodium fatty acid, 10 mM ATP, 10 mM MgCl2, 1 mM DTT, 200 μg/mL of the purified enzyme, pH 8.0 was incubated at 25° C. for 24 hours. As amino acids, L-Asp was used in AtGH3-6, OsGH3-8, AtGH3-5, AtGH3-12, and Gly or L-Ala was used in CfHP. After completion of the reaction, 0.4 mL of the reaction stop solution (1% (v/v) phosphoric acid, 75% (v/v) methanol) was added, and the mixture was filtrated through the filter followed by being subjected to the UPLC-MS analysis to quantify the produced N-acylamino acid by detection at UV 210 nm. The condition for the UPLC-MS analysis is as descried in Example 2. As a result of the analysis, 3.9 mM of Nα-capryloyl-L-aspartic acid, 4.5 mM of Nα-caprinoyl-L-aspartic acid and 2.2 mM of Nα-lauroyl-L-aspartic acid were detected when AtGH3-6 was used; 4.3 mM of Nα-capryloyl-L-aspartic acid, 4.6 mM of Nα-caprinoyl-L-aspartic acid and 3.5 mM of Nα-lauroyl-L-aspartic acid were detected when OsGH3-8 was used; 4.1 mM of Nα-capryloyl-L-aspartic acid, 4.6 mM of Nα-caprinoyl-L-aspartic acid and 2.5 mM of Nα-lauroyl-L-aspartic acid were detected when AtGH3-5 was used; 1.6 mM of Nα-capryloyl-L-aspartic acid, 0.6 mM of Nα-caprinoyl-L-aspartic acid and 0.2 mM of Nα-lauroyl-L-aspartic acid were detected when AtGH3-12 was used; 4.5 mM of Nα-capryloylglycine, 4.6 mM of Nα-caprinoylglycine, 0.1 mM of Nα-lauroylglycine, 3.1 mM of Nα-capryloyl-L-alanine, 3.6 mM of Nα-caprinoyl-L-alanine and 0.4 mM of Nα-lauroyl-L-alanine were detected when CfHP was used.

[2] = Synthesis of N-lauroylamino acid / N-lauroylamino acid derivative using purified acylamino acid synthetase, UPLC-MS detection; parameters: key: +: Detected; −: Not detected; conditions: +ATP
[3] = Synthesis of N-caprinoylamino acid using purified acylamino acid synthetase, UPLC-MS detection; parameters: key: +: Detected; −: Not detected; conditions: +ATP
Summary of the method: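 Purified enzyme (50 μg) with 5 mM amino acid, 5 mM sodium caprate, 10 mM ATP, 10 mM MgCl2, 1 mM DTT in Tris-HCl pH 8.0, 24 h at 25° C; product detected by UPLC-MS (ESI-negative) as the N-caprinoyl amino acid mass signal.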

[4] = Synthesis of N-lauroylamino acid / N-lauroylamino acid derivative using purified acylamino acid synthetase, UPLC-MS detection; parameters: key: +: Detected; −: Not detected; conditions: +ATP; remark: listed apart in the source
Procedure: 0.2 mL of a reaction solution containing 50 mM Tris-HCl, 5 mM amino acid or D-amino acid derivative, 5 mM sodium laurate, 10 mM ATP, 10 mM MgCl2, 1 mM DTT, 200 μg/mL of the purified enzyme, pH 8.0 was incubated at 25° C. for 24 hours. After completion of the reaction, 0.8 mL of the reaction stop solution (1% (v/v) phosphoric acid, 75% (v/v) methanol) was added, and the mixture was filtrated through the filter followed by being subjected to the UPLC-MS analysis to detect a signal of a molecular weight corresponding to an N-lauroyl-amino acid or an N-lauroyl-amino acid derivative. The condition for the UPLC-MS analysis is as described in Example 2.
As a result of the UPLC-MS analysis, the signal of the molecular weight corresponding to the N-lauroyl-amino acid or the N-lauroyl-amino acid derivative was confirmed in the reaction solution containing the enzyme in combination with the amino acid or the amino acid derivative shown in Table 5 below.

[5] = substrates GABA and sodium caprate
[6] = substrates Gly and sodium caprate
[7] = substrates L-Ala and sodium caprate
[8] = substrates L-Arg and sodium caprate
[9] = substrates L-Asn and sodium caprate
[10] = substrates L-Asp and sodium caprate
[11] = substrates L-Cys and sodium caprate
[12] = substrates L-Gln and sodium caprate
[13] = substrates L-Glu and sodium caprate
[14] = substrates L-His and sodium caprate
[15] = substrates L-Ile and sodium caprate
[16] = substrates L-Leu and sodium caprate
[17] = substrates L-Lys and sodium caprate
[18] = substrates L-Met and sodium caprate
[19] = substrates L-Phe and sodium caprate
[20] = substrates L-Pro and sodium caprate
[21] = substrates L-Ser and sodium caprate
[22] = substrates L-Thr and sodium caprate
[23] = substrates L-Trp and sodium caprate
[24] = substrates L-Tyr and sodium caprate
[25] = substrates L-Val and sodium caprate
[26] = substrates β-Ala and sodium caprate

B1: AtGH3-6: indole-3-acetic acid-amido synthetase GH3.6 from Arabidopsis thaliana, expressed in E. coli with N-terminal His-tag (protein, listed as Arabidopsis thaliana)
chain: MPEAPKIAALEVSDESLAEKNKNKLQFIEDVTTNADDVQRRVLEEILSRNADVEYLKRHGLEGRTDRETFKHIMPVVTYEDIQPEINRIANGDKSQVLCSNPISEFLTSSGTSGGERKLMPTIEEELDRRSLLYSLLMPVMDQFVPGLDKGKGMYFLFIKSESKTPGGLPARPVLTSYYKSSHFKNRPYDPYTNYTSPNQTILCSDSYQSMYSQMLCGLCQHKEVLRVGAVFASGFIRAIKFLEKHWPELARDIRTGTLSSEITDSSVREAVGEILKPDPKLADFVESECRKTSWQGIITRLWPNTKYVDVIVTGTMSQYIPTLDYYSNGLPLVCTMYASSECYFGVNLRPLCKPSEVSYTLIPNMAYFEFLPVHRNSGVTSSISLPKALTEKEQQELVDLVDVKLGQEYELVVTTYAGLYRYRVGDVLSVAGFKNNAPQFSFICRKNVVLSIDSDKTDEVELQNAVKNAVTHLVPFDASLSEYTSYADTSSIPGHYVLFWELCLNGNTPIPPSVFEDCCLTIEESLNSVYRQGRVSDKSIGPLEIKMVESGTFDKLMDYAISLGASINQYKTPRCVKFAPIIELLNSRVVDSYFSPKCPKWSPGHKQWGSN
modifications: N-terminal His-tag
notes: indole-3-acetic acid-amido synthetase GH3.6 from Arabidopsis thaliana, expressed in E. coli with N-terminal His-tag
- Nα-caprinoyl-L-aspartic acid detected ([1]; 5 mM L-Asp): 4.5 mM
- Nα-capryloyl-L-aspartic acid detected ([1]; 5 mM L-Asp): 3.9 mM
- Nα-lauroyl-L-aspartic acid detected ([1]; 5 mM L-Asp): 2.2 mM
- signal of molecular weight corresponding to N-lauroyl amino acid derivative ([2]; substrates Sarcosine and sodium laurate): +
- signal of molecular weight corresponding to N-lauroyl amino acid derivative ([2]; substrates Taurine and sodium laurate): +
- signal of molecular weight corresponding to N-caprinoyl amino acid [3, 5]: +
- signal of molecular weight corresponding to N-caprinoyl amino acid [3, 6]: +
- signal of molecular weight corresponding to N-caprinoyl amino acid [3, 7]: +
- signal of molecular weight corresponding to N-caprinoyl amino acid [3, 8]: +
- signal of molecular weight corresponding to N-caprinoyl amino acid [3, 9]: +
- signal of molecular weight corresponding to N-caprinoyl amino acid [3, 10]: +
- signal of molecular weight corresponding to N-caprinoyl amino acid [3, 11]: +
- signal of molecular weight corresponding to N-caprinoyl amino acid [3, 12]: +
- signal of molecular weight corresponding to N-caprinoyl amino acid [3, 13]: +
- signal of molecular weight corresponding to N-caprinoyl amino acid [3, 14]: +
- signal of molecular weight corresponding to N-caprinoyl amino acid [3, 15]: +
- signal of molecular weight corresponding to N-caprinoyl amino acid [3, 16]: +
- signal of molecular weight corresponding to N-caprinoyl amino acid [3, 17]: +
- signal of molecular weight corresponding to N-caprinoyl amino acid [3, 18]: +
- signal of molecular weight corresponding to N-caprinoyl amino acid [3, 19]: +
- signal of molecular weight corresponding to N-caprinoyl amino acid [3, 20]: +
- signal of molecular weight corresponding to N-caprinoyl amino acid [3, 21]: +
- signal of molecular weight corresponding to N-caprinoyl amino acid [3, 22]: +
- signal of molecular weight corresponding to N-caprinoyl amino acid [3, 23]: +
- signal of molecular weight corresponding to N-caprinoyl amino acid [3, 24]: +
- signal of molecular weight corresponding to N-caprinoyl amino acid [3, 25]: +
- signal of molecular weight corresponding to N-caprinoyl amino acid [3, 26]: +
- signal of molecular weight corresponding to N-lauroyl amino acid ([4]; substrates Gly and sodium laurate): +
- signal of molecular weight corresponding to N-lauroyl amino acid ([4]; substrates L-Ala and sodium laurate): +
- signal of molecular weight corresponding to N-lauroyl amino acid ([4]; substrates L-Arg and sodium laurate): +
- signal of molecular weight corresponding to N-lauroyl amino acid ([4]; substrates L-Asp and sodium laurate): +
- signal of molecular weight corresponding to N-lauroyl amino acid ([4]; substrates L-Glu and sodium laurate): +
- signal of molecular weight corresponding to N-lauroyl amino acid ([4]; substrates L-Lys and sodium laurate): +
- signal of molecular weight corresponding to N-lauroyl amino acid ([4]; substrates L-Thr and sodium laurate): +
- signal of molecular weight corresponding to N-lauroyl amino acid ([4]; substrates β-Ala and sodium laurate): +

B2: CfHP: hypothetical protein from Cystobacter fuscus (GH3 protein), His-tagged (protein, listed as Cystobacter fuscus)
chain: MQAAGRRDKQRFIEQTRHVARVNVDTLRAILQHNRDTDFGRRHGFASLRTVEDFQRALPVSTYEPFRPYMERIARGEQNVLTADRVEYLGITSGTTGQRKLLPVSRPHLENMRRTMMIGRAVVTEKVPAARRPSRGMILMNAVLRERSEGGLLTGALTAISTHSMGRAASFAFTSPPEAFRLRKHADALYLHLLFGLRERELGTLMAPFASGLLDMVHLLERRGADLVDDIARGVLRPELDLEPEQRRLLQSRLLPDPERAREVSQALEQGPHGLLRRLWPRLAYVSSITGASFSLYTRQLTPYLEGVPLSAASYVSTEGILGVPLELEQAVYCLMVGMAFFEFIPERELDAESPTTLLPEQLVEGEAYEVVLTTQAGLYRYRLGDVVRIVGRYHEAPLMEFLYRRGALLNLMGEKTSEHAARLALEQALATEGLLPADYSVVEETETLPGRYALFVELQEGARPQGAPEQLSRALEEALCRTNPFYEVIRRSERLGAAQLHRVEPGTFQALRDVLVQRGASPTQVKVPRVVRDAELQGLLRQRRVTG
modifications: His-tag
notes: hypothetical protein from Cystobacter fuscus (GH3 protein), His-tagged
- Nα-caprinoylglycine detected ([1]; 5 mM Gly): 4.6 mM
- Nα-capryloylglycine detected ([1]; 5 mM Gly): 4.5 mM
- Nα-lauroylglycine detected ([1]; 5 mM Gly): 0.1 mM
- Nα-caprinoyl-L-alanine detected ([1]; 5 mM L-Ala): 3.6 mM
- Nα-capryloyl-L-alanine detected ([1]; 5 mM L-Ala): 3.1 mM
- Nα-lauroyl-L-alanine detected ([1]; 5 mM L-Ala): 0.4 mM
- signal of molecular weight corresponding to N-caprinoyl amino acid [3, 5]: +
- signal of molecular weight corresponding to N-caprinoyl amino acid [3, 6]: +
- signal of molecular weight corresponding to N-caprinoyl amino acid [3, 7]: +
- signal of molecular weight corresponding to N-caprinoyl amino acid [3, 8]: +
- signal of molecular weight corresponding to N-caprinoyl amino acid [3, 9]: +
- signal of molecular weight corresponding to N-caprinoyl amino acid [3, 10]: +
- signal of molecular weight corresponding to N-caprinoyl amino acid [3, 11]: +
- signal of molecular weight corresponding to N-caprinoyl amino acid [3, 12]: +
- signal of molecular weight corresponding to N-caprinoyl amino acid [3, 13]: +
- signal of molecular weight corresponding to N-caprinoyl amino acid [3, 14]: +
- signal of molecular weight corresponding to N-caprinoyl amino acid [3, 15]: +
- signal of molecular weight corresponding to N-caprinoyl amino acid [3, 16]: +
- signal of molecular weight corresponding to N-caprinoyl amino acid [3, 17]: +
- signal of molecular weight corresponding to N-caprinoyl amino acid [3, 18]: +
- signal of molecular weight corresponding to N-caprinoyl amino acid [3, 19]: +
- signal of molecular weight corresponding to N-caprinoyl amino acid [3, 20]: +
- signal of molecular weight corresponding to N-caprinoyl amino acid [3, 21]: +
- signal of molecular weight corresponding to N-caprinoyl amino acid [3, 22]: +
- signal of molecular weight corresponding to N-caprinoyl amino acid [3, 23]: +
- signal of molecular weight corresponding to N-caprinoyl amino acid [3, 24]: +
- signal of molecular weight corresponding to N-caprinoyl amino acid [3, 25]: +
- signal of molecular weight corresponding to N-caprinoyl amino acid [3, 26]: +

Source: patent US12281340B2, “Method of producing N-acyl-amino group-containing compound” (AJINOMOTO CO., INC., priority 2018, dated 2025)
